One block for each molecule: values may come before it.
Tests used:
β-catenin 1-781 = β-catenin 1-781 (UniProt Q02248); assay: isothermal titration calorimetry; conditions: reference: non-phosphorylated Lef-1(1–63); sites S40
[1] = biological target: full-length β-catenin (residues 1–781) (murine) (UniProt Q02248); assay: ITC
[2] = biological target: T1, full-length β-catenin (residues 1–781) (murine, UniProt Q02248 1-781); assay: ITC
T1 sequence (looked up): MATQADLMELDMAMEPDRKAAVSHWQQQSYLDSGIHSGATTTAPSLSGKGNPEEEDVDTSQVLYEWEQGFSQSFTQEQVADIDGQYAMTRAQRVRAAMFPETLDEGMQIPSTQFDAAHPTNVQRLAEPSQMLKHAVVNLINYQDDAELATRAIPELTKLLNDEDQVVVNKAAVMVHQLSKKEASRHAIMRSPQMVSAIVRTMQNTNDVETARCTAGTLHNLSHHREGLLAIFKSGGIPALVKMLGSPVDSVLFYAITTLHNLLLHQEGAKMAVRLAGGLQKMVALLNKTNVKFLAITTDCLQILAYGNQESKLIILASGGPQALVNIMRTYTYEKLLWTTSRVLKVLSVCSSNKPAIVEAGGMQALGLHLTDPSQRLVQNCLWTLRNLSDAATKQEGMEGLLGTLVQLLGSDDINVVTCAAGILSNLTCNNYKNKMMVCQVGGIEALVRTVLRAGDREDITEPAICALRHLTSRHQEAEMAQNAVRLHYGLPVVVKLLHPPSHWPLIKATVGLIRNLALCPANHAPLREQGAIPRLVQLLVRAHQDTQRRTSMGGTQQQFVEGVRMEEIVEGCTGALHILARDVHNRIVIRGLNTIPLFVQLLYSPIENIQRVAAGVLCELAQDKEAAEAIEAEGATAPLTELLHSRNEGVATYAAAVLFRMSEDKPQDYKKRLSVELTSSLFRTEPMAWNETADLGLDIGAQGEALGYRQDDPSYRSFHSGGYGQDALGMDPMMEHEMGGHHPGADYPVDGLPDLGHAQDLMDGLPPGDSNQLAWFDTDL

KD (β-catenin 1-781): same; reference 23 (± 3) × 10−9
Molecule: Lef-1 1-63 (from UniProt P27782) CK2-phosphorylated, HPLC-purified pLef-1(1–63)

dH [1]: -13.1 kcal/mol
Molecule: murine Lef-1(1–63), non-phosphorylated, as used for ITC (from UniProt P27782 1-63) (domain or fragment)

Kd [1]: 35 nM
dH [1]: -12.3 kcal/mol
Molecule: CK2-phosphorylated murine Lef-1(1–63), HPLC-separated, as used for ITC (from UniProt P27782 1-63) (domain or fragment)

Kd [2]: 16 nM
dH [2]: -12.5 ± 0.1 kcal/mol
B1: human TCF4 β-catenin binding region, residues 1–57 (domain or fragment, UniProt Q9NQB0 1-57, looked up)
chain: MPQLNGGGGDDLGANDELISFKDEGEQEEKSSENSSAERDLADVKSSLVNESETNQN

Source: paper PMC3017643 (Journal of molecular biology, 2010)
